The target of the experiment is Pcdh γB6 ectodomain, γB6_(EC1–6), wild type. Description: cryo-EM structure.

As usually defined, the stoichiometry N is a count of units in the complex or per binding partner.

In turn, “Pcdh γB6 ectodomain, γB6_(EC1–6), wild type (domain or fragment)” displayed a stoichiometry N of 4.

Source of the values: publication PMC6736547.
